# Results published in US20180244777A1 (NUMAB THERAPEUTICS, published 2018).
# Like-named read-outs stand apart in the source and are kept apart here.
# T1: linear 15mer peptide derived from human CD3ε residues 2-16 (wild type of the substitution library, Set 1) (human)
# T1 construct: Probed as a saturation mutagenesis library on a peptide array
# T1 peptide: DGNEEMGGITQTPYK
# T2: linear 15mer peptide derived from cynomolgus CD3ε residues 2-16 (wild type of the substitution library, Set 2) (cynomolgus)
# T2 construct: Probed as a saturation mutagenesis library on a peptide array
# T2 peptide: DGNEEMGSITQTPYQ
# T3: linear 15mer peptides derived from human CD3ε residues 5-20 (Set 3) (human)
# T3 construct: also called peptides spanning residues 5-20
# T3 peptide: EEMGGITQTPYKVSIS
# T4: linear 15mer peptides derived from cynomolgus CD3ε residues 5-20 (Set 4) (cynomolgus)
# T4 construct: also called peptides spanning residues 5-20
# T4 peptide: EEMGSITQTPYQVSIS
# How the values were obtained:
# [1] = biological target: T5, human CD3ε expressed on the cell surface of T cells (Jurkat cells; human CD8+ T cells) (human, UniProt P07766 23-207); assay: cell-based or functional assay
# [2] = biological target: T1, linear 15mer peptide derived from human …; assay: 15mer peptide array ELISA
# [3] = biological target: T2, linear 15mer peptide derived from …; assay: 15mer peptide array ELISA
# [4] = biological target: T3, linear 15mer peptides derived from …; assay: peptide array ELISA, Set 3
# Method: (§1) The binding of the antibodies to each of the synthesized peptides was tested by ELISA. The peptide arrays were incubated with primary antibody solution (overnight at 4° C.). After washing, the peptide arrays were incubated with a 1/1000 dilution of an antibody peroxidase conjugate (SBA, cat.nr.2010-05) for one hour at 25° C. After washing, the peroxidase substrate 2,2′-azino-di-3-ethylbenzthiazoline sulfonate (ABTS) and 2 μl/ml of 3% H₂O₂ were added. After one hour, the color development was measured. The color development was quantified with a charge coupled device (CCD)—camera and an image processing system.
# [5] = biological target: T4, linear 15mer peptides derived from …; assay: peptide array ELISA, Set 4
# Method: as §1
# [6] = biological target: T5, human CD3ε expressed on the cell …; assay: cell-based or functional assay; remark: listed apart in the source
# [7] = biological target: T5, human CD3ε expressed on the cell …; assay: cell-based ELISA on Jurkat cells
# Method: (§2) Jurkat cells (clone E6-1), a human T cell line, were seeded at 300,000 cells/well in round bottom 96-well plates in 100 μl phosphate-buffered saline (PBS) containing 10% FBS. Five-fold serial dilutions of anti-CD3 rabbit monoclonal antibodies ranging from 90 nM to 0.0058 nM were added to the plates in 100 μl PBS containing 10% FBS. […] This secondary antibody was linked to the enzyme horseradish peroxidase (HRP). HRP activity was measured by addition of TMB substrate (3,3′,5,5′-tetramethylbenzidine, KPL, Cat. No. 53-00-00), which in a colorimetric reaction is processed by the HRP. The color intensity of the processed substrate is directly proportional to the amount of anti-CD3 antibody bound to Jurkat cells. To quantify color intensity, light absorbance (optical density) at the respective wave length was measured using a microtiter plate reader (Infinity reader M200 Pro, Tecan).
# (§3) To correct for unspecific binding of the antibodies to unknown components presented on the cell surface of Jurkat cells, a CD3ε deficient derivative of the Jurkat T cell line (J.RT3-T3.5) was used. Binding of the monoclonal antibodies to this cell line was measured as described above for the Jurkat cells. For quantification of specific binding to Jurkat cells, the optical density for binding to the negative control was subtracted from the optical density for binding to Jurkat cells. Data were analyzed using a four-parameter logistic curve fit using the Softmax Data Analysis Software (Molecular Devices), and the molar concentration of anti-CD3 antibody required to reach 50% binding (EC₅₀, mid-OD of the standard curve) was derived from dose response curves.
# [8] = biological target: T6, cynomolgus monkey CD3ε expressed on the surface of HSC-F T cells (cynomolgus monkey, UniProt Q95LI5 22-198); assay: cell-based ELISA on cyno HSC-F T cells
# T6 construct: whole, on cells; also called cyno HSC-F T cells
# [9] = biological target: T7, cynomolgus monkey heterodimeric single-chain CD3εγ extracellular domain (cynomolgus monkey, UniProt Q95LI5 22-117; Q95LI7 23-113); assay: SPR; ratio of the KDs for cyno and human single-chain CD3εγ
# [10] = biological target: T7, cynomolgus monkey heterodimeric …; assay: SPR, rabbit IgG captured, cyno single-chain CD3εγ ECD injected
# [11] = biological target: T7, cynomolgus monkey heterodimeric …; assay: as above; remark: listed apart in the source
# [12] = biological target: T8, human heterodimeric single-chain CD3εγ extracellular domain (human, UniProt P07766 23-126; P09693 23-116); assay: SPR, rabbit IgG captured, human single-chain CD3εγ ECD injected
# T8 construct: extracellular domain; Produced in-house; also called scCD3γε; human CD3ge
# Method: (§4) Binding affinities of monoclonal rabbit anti-CD3 antibodies were measured by surface plasmon resonance (SPR) using a MASS-1 SPR instrument (Sierra Sensors). […] Rabbit monoclonal antibodies were captured by the immobilized anti-rabbit IgG antibody. Two-fold serial dilutions of human heterodimeric single-chain CD3εγ extracellular domain (produced in-house) ranging from 90 to 2.81 nM were injected into the flow cells for 3 min and dissociation of the protein from the IgG captured on the sensor chip was allowed to proceed for 5 min. After each injection cycle, surfaces were regenerated with two injections of 10 mM glycine-HCl. The apparent dissociation (kd) and association (ka) rate constants and the apparent dissociation equilibrium constant (KD) were calculated with the MASS-1 analysis software (Analyzer, Sierra Sensors) using one-to-one Langmuir binding model.
# [13] = biological target: T8, human heterodimeric single-chain CD3εγ …; assay: as above; remark: listed apart in the source
# Method: as §4
# [14] = biological target: T5, human CD3ε expressed on the cell …; assay: cell-based ELISA on Jurkat cells, CD3ε-deficient Jurkat subtracted
# Method: as §2, §3
# T7 sequence (Q95LI7 other isoform, or with tags, fused parts or gaps): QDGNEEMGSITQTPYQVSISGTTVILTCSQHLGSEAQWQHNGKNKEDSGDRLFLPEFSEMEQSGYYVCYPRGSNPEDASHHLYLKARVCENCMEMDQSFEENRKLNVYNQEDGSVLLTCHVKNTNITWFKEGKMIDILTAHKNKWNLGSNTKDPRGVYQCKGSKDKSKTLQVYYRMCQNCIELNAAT
# T6 sequence (Q95LI5 22-198): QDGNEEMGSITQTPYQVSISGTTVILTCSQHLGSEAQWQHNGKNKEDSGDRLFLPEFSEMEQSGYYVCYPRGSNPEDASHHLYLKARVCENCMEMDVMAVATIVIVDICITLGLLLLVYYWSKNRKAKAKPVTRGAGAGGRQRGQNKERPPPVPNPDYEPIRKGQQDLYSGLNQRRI
EC50 in the dose-response curve of specific lysis of CHO-IL5R target cells at 64 hours [1] [nM],binding result [2],binding result [3],binding result [4],binding result [5],"Fold increase in CD69 expression [MFI normalized to neg. ctrl.], 1.25 µg/ml anti-CD3 IgG [6] [fold]","Fold increase in CD69 expression [MFI normalized to neg. ctrl.], 5 µg/ml anti-CD3 IgG [6] [fold]","Fold increase in CD69 expression [MFI normalized to neg. ctrl.], 20 µg/ml anti-CD3 IgG [6] [fold]",EC50 [7] [nM],EC50 [8] [nM],KD (human)/KD (cyno) [9],Kd [10] [nM],Kd [11] [nM],koff [11] [s⁻¹],kon [11] [M⁻¹ s⁻¹],Kd [12] [nM],Kd [13] [nM],koff [13] [s⁻¹],kon [13] [M⁻¹ s⁻¹],EC50 [14] [nM],Binder
0.31,–,–,–,–,–,–,–,–,–,–,–,–,–,–,–,–,–,–,–,"anti-IL5R×CD3ε scDb containing Numab's anti-CD3 domain (humanized clone 6), Example 9 (bispecific antibody) DIQMTQSPSSLSASVGDRVTITCQASQNIYSNLAWYQQKPGKAPKLLIYRASTLASGVPSRFSGSGSGTDFTLTISSLQPEDFATYYCQSNYGINYYGAAFGQGTKLTVLGGGGGSEVQLVESGGGLVQPGGSLRLSCAASGFPLSSYAMIWVRQAPGKGLEWIGMILRAGNIYYASWVKGRFTISRDNSKNTVYLQMNSLRAEDTAVYYCARRHYNREGYPIGIGDLWGQGTLVTVSSGGGGSGGGGSGGGGSGGGGSDIQMTQSPSSLSASVGDRVTITCQSSESVYNNKRLSWYQQKPGKAPKLLIYTASSLASGVPSRFSGSGSGTDFTLTISSLQPEDFATYYCQGEFTCSNADCFTFGQGTKLTVLGGGGGSEVQLVESGGGLVQPGGSLRLSCAASGFSLSSYDMTWVRQAPGKGLEWIGIIYVSGSAYYASWAKGRFTISRDNSKNTVYLQMNSLRAEDTAVYYCARINYGLDLWGQGTLVTVSS"
–,binds,binds,no binding,no binding,2.6,4.6,6.6,1.45,23.9,13,11.5,11.5,0.00403,350000,0.905,0.905,0.000498,551000,1.45,"clone-03 (antibody, V domains shown, Recombinant rabbit IgG; also called Clone 3) VH: QSLEESGGRLVTPGTPLTLTCTVSGFPLNRYAMLWVRQAPGKGLEWIGLITRADKKYYASWAKGRFTISKTSTTVDLEITGPTTEDTATYFCARRHYNTDGYPIAIGDLWGPGTLVTVSS VL: AQVLTQTPSSVSAAVGGTVTISCQSNENIYSNNRLSWFQQKPGQPPNQLIYSASSLASGVPSRFKGSGSGTQFTLTISDLECDDAATYYCQGEFNCNSADCFTFGGGTEVVVKG"
